The values below come from US20250171549A1 (Amgen, published 2025).

Where no end group is shown, it is not given here.

Assay [1] deals with T1, Peptide 2 (biotinylated N-terminus CCR8 peptide, amino acids 7-18) (human, also: biotinylated, position not given here).
T1 construct: Captured on streptavidin polystyrene beads
T1 peptide: LSVTTVTDYYYP
Briefly: flow cytometry, biotinylated peptide on streptavidin beads. On the procedure:
(§1) The biotinylated human CCR8 peptides were captured on streptavidin polystyrene beads (Spherotech) in FACS buffer (PBS+2% Fetal Bovine Serum) at a final protein concentration of 50-100 ng/ml and incubated for 30 minutes at room temperature. Beads were washed twice with FACS buffer to remove unbound protein, centrifuged to pellet the beads, and resuspended and pooled together in StabilGuard (SurModics). The pooled biotinylated human CCR8 coated beads were added to hybridoma supernatant samples in a 96-well plate, such that the final antibody concentration was 5.0 μg/mL, and then incubated for one hour at room temperature.
(§2) Plates were washed twice with FACS buffer, centrifuged to pellet the beads, and supernatant was removed and resuspended in FACS buffer to remove unbound antibodies. Alexa Fluor 488 goat anti-human or rat IgG (Fcγ fragment specific) secondary antibodies (Jackson ImmunoResearch) made up in FACS buffer at 5.0 μg/mL were added to each well, resuspended with beads and incubated for 15 minutes at room temperature. Plates were washed twice with FACS buffer, centrifuged to pellet the beads, and supernatant was removed and resuspended in FACS buffer to remove unbound secondary antibodies. Samples were then resuspended in FACS buffer and read on either IntelliCyt® iQue Flow Cytometer.
(§3) Data are represented as a ratio of geometric mean binding to beads coated with specific peptide divided by geometric mean of binding to a bead coated with a negative control peptide (peptide with unrelated sequence). A value above two represents presence of binding.
On the technique in general: In flow cytometry, cells or beads pass a laser one at a time.

The target in assay [2] is T2, Peptide 5 (biotinylated N-terminus CCR8 peptide, amino acids 25-35) (human, also: biotinylated, position not given here).
T2 construct: Captured on streptavidin polystyrene beads
T2 peptide: CDAELIQTNGK
Described as above. Here is the method:
as §1, §2, §3

The target in assay [3] is T3, Peptide 4 (biotinylated N-terminus CCR8 peptide, amino acids 19-30) (human, also: biotinylated, position not given here).
T3 construct: Captured on streptavidin polystyrene beads
T3 peptide: DIFSSPCDAELI
The assay is described as above. Here is the method: as §1, §2, §3

The target in a further assay is T4, human CCR4 (human, UniProt P51679 1-360).
T4 construct: Transiently expressed on HEK293T; also called hCCR4
T4 sequence: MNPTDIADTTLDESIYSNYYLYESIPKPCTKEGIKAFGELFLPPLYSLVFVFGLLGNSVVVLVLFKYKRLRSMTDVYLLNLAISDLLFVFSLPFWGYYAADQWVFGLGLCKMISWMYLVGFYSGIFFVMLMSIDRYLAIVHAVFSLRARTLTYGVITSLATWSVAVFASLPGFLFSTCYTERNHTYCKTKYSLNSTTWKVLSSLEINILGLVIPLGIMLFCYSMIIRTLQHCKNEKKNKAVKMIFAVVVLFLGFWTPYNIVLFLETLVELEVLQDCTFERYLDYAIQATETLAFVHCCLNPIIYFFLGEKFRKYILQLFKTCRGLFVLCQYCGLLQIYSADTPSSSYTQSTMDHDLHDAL
The experiment in a line: flow cytometry, HEK293T transfectants. From the text: (§4) Transfected cells were used to assess an antibody's binding specificity using flow cytometry on host Human Embryonic Kidney (HEK) 293T cells. Proteins were expressed on HEK 293T cells by transfection using human CCR8 (SEQ ID NO: 21), human CCR8 with an A27G point mutation (SEQ ID NO: 23), murine CCR8 (SEQ ID NO: 24), rat CCR8 (SEQ ID NO: 25), human CCR4 (SEQ ID NO: 26), or control expression vectors, Gibco™ Opti-MEM® media (Gibco), and 293Fectin™ reagent (Invitrogen) according to the manufacturer's instructions. Human T-cell lymphoma (HuT78) cell lines were also used to determine specificity to endogenously expressed CCR8.
Transfected HEK293T cells (24 hours after transfection) or HuT78 cells were resuspended in FACS buffer (PBS+2% Fetal Bovine Serum) and added to a 96-well plate. […]
Alexa Fluor 647 goat anti-human or rat IgG (Fcγ fragment specific) secondary antibodies (Jackson ImmunoResearch) made up in FACS buffer at 5.0 μg/mL were added to each well, and cells were resuspended and incubated for 15 minutes at 4° C. […] Samples were resuspended in FACS buffer and read on either IntelliCyt® iQue or BD Accuri™ Flow Cytometer with an Intellicyt HyperCyt autosampler.

A further assay has as its target T5, rat CCR8 (rat, UniProt P56484 1-353 (mouse entry)).
T5 construct: Transiently expressed on HEK293T
T5 chain: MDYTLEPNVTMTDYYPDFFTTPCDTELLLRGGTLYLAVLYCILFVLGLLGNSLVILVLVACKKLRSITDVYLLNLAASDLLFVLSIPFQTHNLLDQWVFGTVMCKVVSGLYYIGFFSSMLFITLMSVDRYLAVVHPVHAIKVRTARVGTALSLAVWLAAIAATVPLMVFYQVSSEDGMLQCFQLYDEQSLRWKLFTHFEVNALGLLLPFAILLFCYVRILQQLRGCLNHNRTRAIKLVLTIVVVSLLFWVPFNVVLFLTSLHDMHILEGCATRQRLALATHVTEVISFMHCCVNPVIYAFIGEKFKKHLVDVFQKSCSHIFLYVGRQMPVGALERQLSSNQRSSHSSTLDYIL
The experiment in a line: flow cytometry, HEK293T transfectants, supernatant 5 ug/mL.
Description: as §4
(§5) Transfected HEK293T cells (24 hours after transfection) or HuT78 cells were resuspended in FACS buffer (PBS+2% Fetal Bovine Serum) and added to a 96-well plate. Hybridoma supernatant samples containing control antibodies 433H (BD Biosciences) or L263G8 (BioLegend), Antibody 1 IgG2, or Antibody 2 IgG2 were added at a final concentration of 5.0 μg/mL, cells were resuspended and incubated for 1 hour at 4° C. Plates were washed twice with FACS buffer, centrifuged to pellet the cells, and supernatant was removed and resuspended in FACS buffer to remove unbound antibodies.
(§6) Alexa Fluor 647 goat anti-human or rat IgG (Fcγ fragment specific) secondary antibodies (Jackson ImmunoResearch) made up in FACS buffer at 5.0 μg/mL were added to each well, and cells were resuspended and incubated for 15 minutes at 4° C. Plates were washed twice with FACS buffer, centrifuged to pellet the cells, and supernatant was removed and resuspended in FACS buffer to remove unbound secondary antibodies. Samples were resuspended in FACS buffer and read on either IntelliCyt® iQue or BD Accuri™ Flow Cytometer with an Intellicyt HyperCyt autosampler.

Assay [4] addresses T6, human CCR8 with an A27G point mutation (human, UniProt P51685 1-355).
T6 construct: Transiently expressed on HEK293T; also called Human CCR8 [A27G]; humanCCR8[A27G]
The description is as above.
Description: as §4, §5, §6

The target of a further assay is T7, murine CCR8 (murine, UniProt P56484 1-353).
T7 construct: Transiently expressed on HEK293T; also called Mouse CCR8; mCCR8
T7 sequence: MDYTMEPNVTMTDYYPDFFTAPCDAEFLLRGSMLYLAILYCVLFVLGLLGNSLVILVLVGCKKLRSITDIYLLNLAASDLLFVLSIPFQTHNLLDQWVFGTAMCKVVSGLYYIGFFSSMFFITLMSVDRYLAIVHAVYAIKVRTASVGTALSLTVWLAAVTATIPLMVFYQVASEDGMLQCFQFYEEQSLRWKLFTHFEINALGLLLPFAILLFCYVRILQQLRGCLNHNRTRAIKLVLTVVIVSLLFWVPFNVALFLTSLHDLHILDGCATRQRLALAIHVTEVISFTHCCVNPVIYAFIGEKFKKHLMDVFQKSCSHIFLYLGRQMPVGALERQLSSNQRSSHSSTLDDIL
The description is as above.
Description: as §4, §5, §6

T6 sequence (P51685 whole entry A27G): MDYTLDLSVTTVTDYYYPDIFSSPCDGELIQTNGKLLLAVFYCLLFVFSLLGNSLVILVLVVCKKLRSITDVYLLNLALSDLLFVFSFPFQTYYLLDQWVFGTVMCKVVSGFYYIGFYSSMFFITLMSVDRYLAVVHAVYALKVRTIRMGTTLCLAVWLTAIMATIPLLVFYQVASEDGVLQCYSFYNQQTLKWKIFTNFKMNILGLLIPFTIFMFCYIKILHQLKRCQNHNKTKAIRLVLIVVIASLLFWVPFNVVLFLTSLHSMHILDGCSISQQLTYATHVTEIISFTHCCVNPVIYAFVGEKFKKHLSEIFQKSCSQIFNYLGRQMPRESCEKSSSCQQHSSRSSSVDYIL

B1: Antibody 1 IgG2 (antibody)
heavy: EVQLVESGGGLVKPGGSLRLSCAASGFTFSNARMGWVRQAPGKGLEWVGRIKSKTEGGTRDYAAPVKGRFTISRDDSKNTLYLQMNSLKTEDTAVYYCTSYSGVWGQGTMVTVSSASTKGPSVFPLAPCSRSTSESTAALGCLVKDYFPEPVTVSWNSGALTSGVHTFPAVLQSSGLYSLSSVVTVPSSNFGTQTYTCNVDHKPSNTKVDKTVERKCCVECPPCPAPPVAGPSVFLFPPKPKDTLMISRTPEVTCVVVDVSHEDPEVQFNWYVDGVEVHNAKTKPREEQFNSTFRVVSVLTVVHQDWLNGKEYKCKVSNKGLPAPIEKTISKTKGQPREPQVYTLPPSREEMTKNQVSLTCLVKGFYPSDIAVEWESNGQPENNYKTTPPMLDSDGSFFLYSKLTVDKSRWQQGNVFSCSVMHEALHNHYTQKSLSLSPGK
light: not shown
notes: IgG2; tested as hybridoma supernatant
For the molecule B1, the binding result is recorded as “no binding” in assay [1], “no binding” in assay [2], “no binding” in assay [3] and “no binding (tested: 5.0 ug/mL)” in the assay with human CCR4. The “binding by FACS (read-out not named)” value with rat CCR8 was found to be 105000; in assay [4], 36900; in the assay with murine CCR8, 24700.

B2: Antibody 2 IgG2 (antibody, V domains shown)
VH: QVQLVESGGGVVQPGRSLRLSCAASGFTFSNYGMHWVRQAPGKGLEWVAVISYDGSNKFYADSVKGRFTISRDNSKKTLYLQMSSLRVEDTAVYYCARAGGIGRFDYWGQGTLVTVSS
VL: DFVMTQTPLSLSVTPGQPASISCKYSQSLLHSDGKTYLFWYLQKPGQPPHLLIYEVSNRFSGVPDRFSGSGSGTDFTLKISRVEAEDVGLYYCMQTLKLPLTFGGGTKVEINR
notes: as for B1
With B2, the binding result in assay [1] is listed as “no binding”; in assay [2], “no binding”; in assay [3], “no binding”; with human CCR4 it was “no binding (tested: 5.0 ug/mL)”. Also, the “binding by FACS (read-out not named)” value with rat CCR8 was 11000; in assay [4], 24200; in the assay with murine CCR8 it was 3600.
